The results in this text go back to US12072338B2, “Pharmaceutical peptides for the treatment of inflammatory diseases” (PROTAGONISTS LTD., priority 2007, dated 2024).

A value given as a limit tells only on which side of the number the result lay.

Assay [1] relates to IL-8. The assay can be described thus: Micro-array analysis of chemokine binding peptides: IL-8. In short, it runs like this: (§1)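 Chemokines printed at 25 and 50 μg/ml on protein microarray slides, blocked, then probed 1 h at RT with peptide-displaying recombinant phage (10^7 pfu/μl). Bound phage detected with mouse anti-M13 then Cy3 anti-mouse IgG. Cy3 fluorescence scanned, reported as relative fluorescence versus chemokine concentration.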
IL-8, sequence (P10145 28-99 limits assumed): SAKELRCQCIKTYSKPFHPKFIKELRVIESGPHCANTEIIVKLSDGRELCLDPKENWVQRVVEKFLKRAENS

Assay [2] concerns the target T1, GRO-β (Homo sapiens, UniProt P19875).
T1 construct: purchased 300-39
T1 sequence (P19875 35-107): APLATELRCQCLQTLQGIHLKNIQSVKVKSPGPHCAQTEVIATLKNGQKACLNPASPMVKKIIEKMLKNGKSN
As to the kind of experiment: Micro-array analysis of chemokine binding peptides: GRO-β. Here is the method: (§2) (1) Printing: Chemokine (CK) solution (in water) was serially diluted with Print Reagent (GenTel BioSurfaces USA) to final concentrations of 50 μg and 25 μg/ml. BSA/BSA-Biotin control solutions (in water) were diluted with Print Reagent to 100 μg/ml. Amplified stock of M13 phage control (M13KEgIII Cloning Vector, New England Biolabs, Cat.No.E8101S) was stored in Tris Buffered Saline (TBS; pH7.5, 4° C.) and diluted with Print Reagent to the working titre (10^8 pfu/μl). An automated spotting robot (16 pin print tool, 0.4 mm head; BioRobotics, UK) was used to print the CK/BSA control/M13 control, 5 repeats per sample (CK 25 μg/ml and 50 μg/ml; BSA 100 μg/ml; M13 20 μl), on PATH Protein Microarray Slides (GenTel, Prod.No. 2-1005/-1025) at […], and 50-70% relative humidity. Printed micro-array slides were stored at Room Temperature (RT) or 4° C. for at least 24 h before use.
(§3) (2) Blocking: Block Buffer (500 μl/partition; PATHblock, GenTel, Prod.No. 2-1014) was applied to the slide for 1 hour at room temp (RT). After removal of Block Buffer, the slide was air dried for 25 minutes;
(§4) (3) Phage Presented Peptide Binding: Amplified recombinant phage stock was stored in TBS and diluted with Wash Buffer to working titer (10^7 pfu/μl). Recombinant phage suspension (300 μl) was applied per partition and incubated at RT for 1 hour with gentle agitation.
(§5) (4) First Washing: The slides were washed twice with Wash Buffer 300 μl/partition).
(§6) (5) Primary Antibody (Ab) Labeling: The slides were incubated with the Primary Ab (1 mg/ml diluted ×2500 (Wash Reagent), 300 μl; Mouse Anti-M13 monoclonal Ab; Amersham Biosciences, UK; Product Code 27-9420-01) for 45 minutes at RT.
(§7) (6) Second Washing: The slides were washed twice with Wash Buffer (300 μl/partition).
(§8) (7) Secondary Ab Labeling: The slides were incubated with Secondary Ab (1.5 mg/ml diluted ×5000 (Wash Reagent), 300 μl; Cy3-conjugated AffiniPure Goat Anti-Mouse IgG; Jackson ImmunoReserch Labs, USA; Product Code 115-165-062).
(§9) (8) Third Washing: The slides were washed twice with Wash Buffer (300 μl/partition).
(§10) (9) Rinse: the slides were rinsed twice with Rinse Buffer (PATHrinse, GenTel, Prod.No. 2-1018) then dried well.
(§11) (10) Scanning: The peptide-bound, labeled slide was scanned (Laser Intensity 80%, Gain 80%, Resolution 10 μm) with a ScanArray Life Scanner (Packard BioChip Technologies, USA).
(§12) (11) Analysis: Quantitative analysis of micro-array was performed by the SpotReader program of Niles Scientific (USA) and presented as Relative Fluorescence (RF) as a function of CK concentration. Micro-array readout (Cy3 fluorescence) was quantified to determine the relative binding affinities of a CBP for the CKs and by inference, the specificity of the CBP for binding to a CK.

Assay [3] concerns the target T2, TECK (Homo sapiens, UniProt O15444).
T2 construct: purchased 300-45
T2 sequence (O15444 24-150): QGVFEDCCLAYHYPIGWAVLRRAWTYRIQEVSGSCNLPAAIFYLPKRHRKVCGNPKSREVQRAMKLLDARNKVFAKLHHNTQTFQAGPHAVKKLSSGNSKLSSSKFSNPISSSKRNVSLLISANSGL
As to the kind of experiment: Micro-array analysis of chemokine binding peptides: TECK. In short, it runs like this: as §1

Assay [4] has as its target T3, I-309 (Homo sapiens, UniProt P22362).
T3 construct: purchased 300-37
T3 sequence (P22362 24-96): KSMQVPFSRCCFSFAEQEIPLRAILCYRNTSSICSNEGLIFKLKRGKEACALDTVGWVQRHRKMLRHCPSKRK
The assay can be described thus: Micro-array analysis of chemokine binding peptides: I-309. In short, it runs like this:
as §1

Assay [5] has as its target T4, MDC 69 (Homo sapiens, UniProt O00626).
T4 construct: MDC(69aa), (CCL22 cat.no.300-36A); purchased 300-36A
T4 sequence (O00626 25-93): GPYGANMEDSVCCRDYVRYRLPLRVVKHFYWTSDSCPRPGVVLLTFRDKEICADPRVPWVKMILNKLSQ
The assay can be described thus: Micro-array analysis of chemokine binding peptides: MDC 69. Here is the method: as §2, §3, §4, §5
(5) Primary Antibody (Ab) Labeling: The slides were incubated with the Primary Ab (1 mg/ml diluted ×2500 (Wash Reagent), 300 μl; Mouse Anti-M13 monoclonal Ab; Amersham Biosciences, UK; Product Code 27-9420-01) for 45 minutes at RT. […]
as §12

The target of assay [6] is T5, I-TAC (Homo sapiens, UniProt O14625).
T5 construct: purchased 300-46
T5 sequence (O14625 22-94): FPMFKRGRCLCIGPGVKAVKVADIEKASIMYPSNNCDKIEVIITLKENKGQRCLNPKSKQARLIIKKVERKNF
As to the kind of experiment: Micro-array analysis of chemokine binding peptides: I-TAC. In short, it runs like this: as §1

Assay [7] deals with T6, Fractalkine (Homo sapiens, UniProt P78423).
T6 construct: purchased 300-31
T6 sequence (P78423 25-100 limits assumed): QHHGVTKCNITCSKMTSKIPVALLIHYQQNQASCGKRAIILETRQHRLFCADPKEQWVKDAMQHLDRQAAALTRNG
As to the kind of experiment: Micro-array analysis of chemokine binding peptides: Fractalkine. In short, it runs like this:
as §1

The target in assay [8] is T7, Mig (Homo sapiens, UniProt Q07325).
T7 construct: purchased 300-26
T7 sequence (Q07325 23-125): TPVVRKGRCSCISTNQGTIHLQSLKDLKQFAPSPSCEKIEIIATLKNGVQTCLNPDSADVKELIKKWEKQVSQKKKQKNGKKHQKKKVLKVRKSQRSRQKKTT
As to the kind of experiment: Micro-array analysis of chemokine binding peptides: Mig. In short, it runs like this:
as §1

In assay [9] the target is T8, MCP-1 (Homo sapiens, UniProt P13500).
T8 construct: purchased 300-04
T8 sequence (P13500 24-99): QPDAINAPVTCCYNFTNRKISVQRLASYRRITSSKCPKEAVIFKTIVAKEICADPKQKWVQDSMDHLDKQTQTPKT
The assay can be described thus: Micro-array analysis of chemokine binding peptides: MCP-1. Here is the method: as §2, §3, §4, §5, §6, §7, §8, §9, §10, §11, §12

Assay [10] has as its target T9, RANTES (Homo sapiens, UniProt P13501).
T9 construct: purchased 300-06
T9 sequence (P13501 24-91): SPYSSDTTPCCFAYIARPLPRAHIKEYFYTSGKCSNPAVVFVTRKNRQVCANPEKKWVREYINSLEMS
As to the kind of experiment: Micro-array analysis of chemokine binding peptides: RANTES. To be noted: limit = start of the upper 75% of that peptide's response range. In short, it runs like this:
as §1

The target of assay [11] is T10, MCP-4 (Homo sapiens, UniProt Q99616).
T10 construct: purchased 300-24
T10 sequence (Q99616 17-98): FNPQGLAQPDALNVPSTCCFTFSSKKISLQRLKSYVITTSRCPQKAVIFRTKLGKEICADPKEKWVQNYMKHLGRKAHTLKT
The assay can be described thus: Micro-array analysis of chemokine binding peptides: MCP-4. The conditions noted are these: limit = start of the upper 75% of that peptide's response range. In short, it runs like this:
as §1

For assay [12], the target named is T11, MCP-2 (Homo sapiens, UniProt P80075).
T11 construct: purchased 300-15
T11 sequence (P80075 24-99): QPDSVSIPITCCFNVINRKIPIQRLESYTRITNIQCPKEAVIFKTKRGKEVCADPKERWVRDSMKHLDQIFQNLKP
The assay can be described thus: Micro-array analysis of chemokine binding peptides: MCP-2. In short, it runs like this: as §1

In assay [13] the target is T12, Eotaxin 2 (Homo sapiens, UniProt O00175).
T12 construct: purchased 300-33
T12 sequence (O00175 27-119): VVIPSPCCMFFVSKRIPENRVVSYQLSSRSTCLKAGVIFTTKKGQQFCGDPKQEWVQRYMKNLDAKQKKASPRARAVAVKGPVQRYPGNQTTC
As to the kind of experiment: Micro-array analysis of chemokine binding peptides: Eotaxin 2. How it is done: as §2, §3, §4, §5, §6, §7, §8, §9, §10, §11, §12

Assay [14] addresses T13, Lymphotactin (Homo sapiens, UniProt P47992).
T13 construct: purchased 300-20
T13 sequence (P47992 22-114): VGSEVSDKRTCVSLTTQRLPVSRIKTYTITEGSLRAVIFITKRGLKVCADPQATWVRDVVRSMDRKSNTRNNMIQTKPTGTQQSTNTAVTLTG
The assay can be described thus: Micro-array analysis of chemokine binding peptides: Lymphotactin. In short, it runs like this: as §1

For assay [15], the target named is T14, Eotaxin (Homo sapiens, UniProt P51671).
T14 construct: purchased 300-21
T14 sequence (P51671 24-97): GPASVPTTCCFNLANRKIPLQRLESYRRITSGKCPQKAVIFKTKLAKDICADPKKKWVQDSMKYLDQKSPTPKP
As to the kind of experiment: Micro-array analysis of chemokine binding peptides: Eotaxin. In short, it runs like this:
as §1

Assay [16] addresses T15, Eotaxin 3 (Homo sapiens, UniProt Q9Y258).
T15 construct: purchased 300-48
T15 sequence (Q9Y258 24-94): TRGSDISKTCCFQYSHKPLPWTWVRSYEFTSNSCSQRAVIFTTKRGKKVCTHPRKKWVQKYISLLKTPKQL
As to the kind of experiment: Micro-array analysis of chemokine binding peptides: Eotaxin 3. In short, it runs like this: as §1

Assay [17] has as its target T16, BCA-1 (Homo sapiens, UniProt O43927).
T16 construct: purchased 300-47
T16 sequence (O43927 23-109): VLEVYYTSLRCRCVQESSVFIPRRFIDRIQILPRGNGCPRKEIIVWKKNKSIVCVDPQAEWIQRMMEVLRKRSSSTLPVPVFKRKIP
The assay can be described thus: Micro-array analysis of chemokine binding peptides: BCA-1. In short, it runs like this:
as §1

For the sequence HHTCSLHFP [Ph-p16], the “binding to IL-8, stated in words” value in assay [1] was “bound”. The “binding to GRO-β, stated in words” value in assay [2] is “bound”. Further, the “binding to TECK, stated in words” value in assay [3] is given as “bound”. Also, the “binding to I-309, stated in words” value in assay [4] is “bound”. The “binding to MDC 69, stated in words” value in assay [5] is “bound”. Moreover, the “binding to I-TAC, stated in words” value in assay [6] is reported as “bound”. In assay [7], the “binding to Fractalkine, stated in words” value is listed as “bound”. Moreover, the “binding to Mig, stated in words” value in [8] was “bound”. Moreover, in assay [9], the “binding to MCP-1, stated in words” value is listed as “bound”. The “binding to RANTES with relatively high affinity (Relative Fluorescence Units)” value in assay [10] is recorded as > 15,000 RFU. Besides, the “binding to MCP-4 with relatively high affinity (Relative Fluorescence Units)” value in assay [11] was > 15,000 RFU. Moreover, in assay [12], the “binding to MCP-2, stated in words” value is on record as “bound”. For the same sequence, the “binding to Eotaxin 2, stated in words” value in assay [13] is “bound”. In addition, the “binding to Lymphotactin, stated in words” value in [14] is recorded as “bound”. Further, the “binding to Eotaxin, stated in words” value in [15] was “bound”. For the same sequence, the “binding to Eotaxin 3, stated in words” value in assay [16] is on record as “bound”. The “binding to BCA-1, stated in words” value in [17] is “bound”.
